From the nanobody polyreactivity screen of Harvey et al. (2022) come the findings set out here.

The data set can be described thus: yeast display, Sf9 membrane polyspecificity reagent, FACS + sequencing; frameworks hold sequencing errors. The method, boiled down: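 Synthetic nanobody libraries on Saccharomyces cerevisiae BJ5465 were galactose-induced for 36–48 hours, stained 1 hour at 4 °C with 10% biotinylated, detergent-solubilized Sf9 membrane reagent and enriched on streptavidin microbeads. FACS then separated cells into low and high (top ~1%) gates by anti-HA (expression) and streptavidin (reagent binding) fluorescence. Genes were colony-PCR amplified, MiSeq 2 × 250 sequenced and CDR-length filtered. A clone's polyreactivity label is that of its gate of origin.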
Take “QVQLVESGGGLVQAGGSLRLSCAASGYTFKTYAMGWYRQAPVKERELVAAISGSGGSTYYADSVKGRFTISRDNAKNTVYLQMNSLKPEDTAVYYCNASPTTTPNFWRYDYWGQGTQVTVSS”: the “polyreactivity (PSR sort gate)” value is “high polyreactivity”.
Take “QVQLVESGGGLVQAGGSLRLSCAASGYTFKTYPMGSYRQAPGKERELVAAISGSGGSTYYADSVKVRFTISRDNAKNTVYLQMNSLNPEDTAVYYCNASPTTTPNFWRYDYWGQGTQVTVSS”: the “polyreactivity (PSR sort gate)” value is “high polyreactivity”.
Take “QVQLVESGGGLVQAGGSLRLSCAASGYTFLGYAMGWSRQAPGKERELVAAIRRSGGRTYYADSVKGRFTISRDNAKNTVYLQMNSLKPEDTAVYYCAKGYVGEYDYWGQGTQVTVSS”: the “polyreactivity (PSR sort gate)” value was “high polyreactivity”.
For “QVQLVESGGGLVQAGGSLRLSCAASGYTFLHYAMGWYRQAPGKERELVAAISGSGGRTYYADSVKGRFTISRDNAKNTVYLQMNSLKPEDTAVYYCAAPYSSRNYYYWGQGTQVTVSS” the value was “high polyreactivity”; for “QVQLVESGGGLVQAGGSLRLSCAASGYTFNGYAMGWYRQAPGKERELVAAISWSGGSTYYADSVKGRFTISRDNAKNTFYLQMNSLKPEDTAVYYCARRGPSGVYNDGGYGLDDDYWGQGTQVTVSS”, “low polyreactivity”; for “QVQLVESGGGLVQAGGSLRLSCAASGYTFPQYAMGWYRQAPGKERELVAAITRRGGSTYYADSVKGRFTISRDNAKNTVYLQMNSLKPEDSAVYNCAADSYPYSHGGDYWGQGTQVTVSS”, “high polyreactivity”.
Regarding “QVQLVESGGGLVQAGGSLRLSCAASGYTFPQYAMRWYRQAPGKERELVAAITRRGGSTYYADSVKGRFTISRDNAKNTVYLQMNSLNPEDTAVYYGSARYYWGQGTQVTVSS”, the “polyreactivity (PSR sort gate)” value is “high polyreactivity”.
For “QVQLVESGGGLVQAGGSLRLSCAASGYTFPSNAMGWYRQAPGKERDWVAAISSGGRTNYADSVKGRFTISRDNAKNTVYLQMNSLKPEDTAVYYCNADGGPGYPRAYDYWGQGTQVTVSS”, the “polyreactivity (PSR sort gate)” value is “low polyreactivity”.
Consider “QVQLVESGGGLVQAGGSLRLSCAASGYTFQRYAMGRYRQAPGKERELVATISKRGGSTYYADSVKGRFTISRDNAKNTVYLQMNSLKPDDTAVYYCATATPEYRGYWPWQYAGGDYWGQGTQVTVSS”, for which the “polyreactivity (PSR sort gate)” value is on record as “high polyreactivity”.
As to “QVQLVESGGGLVQAGGSLRLSCAASGYTFRFNAMGWYRQAPGKERELVARISKSGGSTYYADSVKGRFTISRDNAKNTVYLQMNSLKPEDTAVYYCAAKDYVWGQGTQVTVSS”, the “polyreactivity (PSR sort gate)” value is “low polyreactivity”.
For “QVQLVESGGGLVQAGGSLRLSCAASGYTFRGYAMGWSRQAPGKERELVAAISWSGGRTYYADSVKGRFTISRDNAKYTVYLQMNSLKPEDTAVYYCAAPGQHSWGQGTQVTVSS” the value was “high polyreactivity”.
Under “QVQLVESGGGLVQAGGSLRLSCAASGYTFRSNVMGWYRQAPGKERELVAAISRGTRTKYADSVKGRFTISRDNAKNTVYLQMNSLKPEDTAVYYCAADTGTGLDWGQGTQVTVSS” stands “high polyreactivity”; under “QVQLVESGGGLVQAGGSLRLSCAASGYTFRSYLGWYRQAPGKEREFVADISTSVTNTYYADSVKGRFTISRDNAKNTVYLQMISLKPEDTAVYYCAAGVQSVYNGEPGIILDFDYWGQGTQVTVSS”, “low polyreactivity”.
Under “QVQLVESGGGLVQAGGSLRLSCAASGYTFRTNVMGWYRQAPGTERELVATINWRGGSTYYADSVKGRFTISRDYAKNTVYLLINSLKPEDTAVYYCAADGLSNVRQMDYWGQGTQVTVSS” stands “low polyreactivity”; under “QVQLVESGGGLVQAGGSLRLSCAASGYTFRVYTMGWYRQAPGTERELVAAISRRGSRTYYADSVKGRFTISRDNAKNTVYLQMNSLKPEDTAVYYCAAGIPYPDDYWGQGSQVTVSS”, “high polyreactivity”.
Take “QVQLVESGGGLVQAGGSLRLSCAASGYTFRYNAMGWYKQAPWKDRELVATITRGGSTNYADSVKGRFTISRDNAKNTVYLQMNSLKPEDTEVYYCNKEAAPLGFVPSYYGRDYWGQGTQVTVSS”: the “polyreactivity (PSR sort gate)” value is “low polyreactivity”.
For “QVQLVESGGGLVQAGGSLRLSCAASGYTFRYYAMGWYRQAPGKERELVAAISSSGGNTYYADSVKGRFTISRDNAKNTVYLQMNSLIPEDTAVYYCAARRYQYPGHSLGYYYTDYYWGQGTQVTVSS”, the “polyreactivity (PSR sort gate)” value was “low polyreactivity”.
“QVQLVESGGGLVQAGGSLRLSCAASGYTFRYYAMGWYRQAPGKERELVARITGRAGSTYYADSVKGRFTISRDNAKNTVYLQMNSLKPEDTAVYYSAASIREGFYWGQGTQVTVSS”: the “polyreactivity (PSR sort gate)” value was “high polyreactivity”.
As for “QVQLVESGGGLVQAGGSLRLSCAASGYTFRYYAMVWYRQAPGKEREMVAAINGGDITNYADSVKGRFTISRDNAKNTVYLQMNSLKPVDTAVYYCAADGEDSLWTCYDYDYWGQGTQVTVSS”, the “polyreactivity (PSR sort gate)” value is “low polyreactivity”.
Turning to “QVQLVESGGGLVQAGGSLRLSCAASGYTFSFNAMGWYRQAPGKERELVAAINRGTSTNYADSVKGRFTISRDNAKNTVYLQMNSLKPEDTAVYYCAAGFRRSAGRYDLDYWGQGTQVTVSS”, the “polyreactivity (PSR sort gate)” value was “high polyreactivity”.
On to “QVQLVESGGGLVQAGGSLRLSCAASGYTFSHYAMGWYRQAPGKERELVAGITWSGGSTYYADSVKGRFTISRDNAKNTVYLQMNSLKPEDTSVYYCAAKYYWYYSYSGIPLFDYWGHGTQVTVSS”, for which the “polyreactivity (PSR sort gate)” value was “low polyreactivity”.
As to “QVQLVESGGGLVQAGGSLRLSCAASGYTFSHYAMGWYRQAPGKERELVAGITWSGGSTYYADSVKVRFTISRDNAKNTVYVQMNSLKPEDTSVYYCAAKYYWYYSYSGIPLFDYWGQGTQVTVSS”, the “polyreactivity (PSR sort gate)” value is listed as “low polyreactivity”.
For “QVQLVESGGGLVQAGGSLRLSCAASGYTFSVNAMGWYRQAPGKESELVATITSSGGGTYYADSVKGRFTISRDNAKNTVYLQMNSLKPEDTAVYYCAADGYWYGDIYPSDYRWYDYWGQGTQVTVSS” the value was “low polyreactivity”.
In the case of “QVQLVESGGGLVQAGGSLRLSCAASGYTFSVNVMGWYRQAPGKERELVAAISGRGGRTYYADSVKGRFTISRDNAKNTVYLQMNSLKPEDTAVYYCAAVRGKPGRISYPYDYWGQGTQVTVSS”, the “polyreactivity (PSR sort gate)” value is recorded as “high polyreactivity”.
For the sequence “QVQLVESGGGLVQAGGSLRLSCAASGYTFSWYAMGWYRQAPRKERELVAGIDTSGGSTYYADSVKGRFTISRDNAKNTVYLQMNSLKPEDTAVYYCAAGLLWYSWGFWYYEYGYWGQGTQVTVSS”, the “polyreactivity (PSR sort gate)” value is “low polyreactivity”.
For “QVQLVESGGGLVQAGGSLRLSCAASGYTFSYYAMGWYRQAPGKERELVAAISVRGDSTYYADSVKGRFTISRDYAKNTVYLLMNSLKPEDTAVYYCAARVVRSSYVRYHYWGQGTQVTVSS” the value was “high polyreactivity”.
In the case of “QVQLVESGGGLVQAGGSLRLSCAASGYTFTIYAMGWSRQAPGKERESVASISIDGSTYYADSVKGRFTISRDNAKNTVYLQMNSLKPEDTAGYYCAADYYYYNPGFDYWGQGTQVTVSS”, the “polyreactivity (PSR sort gate)” value is listed as “low polyreactivity”.
With “QVQLVESGGGLVQAGGSLRLSCAASGYTFTIYAMGWYRQAPGKERELVASISIDGSTYYADSVKGRFTISRDNAKNTVYLQMNSLKPEDTAVYYCAADYYYYTPGFDYWGQGTQVTVSS”, the “polyreactivity (PSR sort gate)” value is “low polyreactivity”.
Under “QVQLVESGGGLVQAGGSLRLSCAASGYTFVDYAMGWYRQAPGKERELVAAISSSGARTYYAYSVKGRFTISRDNAKNSVYLQMNSLKAEDTAVYYCNTPRPYEITTPEYYYWGQGTQVTVSS” stands “high polyreactivity”.
For the sequence “QVQLVESGGGLVQAGGSLRLSCAASGYTFVNYAMGWYRQAPGKEREFVAAISRSGGSTYYADSVKGRFTISRDNAKNTVYLQMNSLKPEDTAVYYCALRGYPPYNYYYWGQGTQVTVSS”, the “polyreactivity (PSR sort gate)” value is “high polyreactivity”.
Regarding “QVQLVESGGGLVQAGGSLRLSCAASGYTFVRYAMGWYRQAPGKEREFVASISTSGGSTYYADSVKGRFTISRDNAKNTVYLQMNSLKPEDTAVYYCAAGHVVRRPYLIYDYWGQGTQVTVSS”, the “polyreactivity (PSR sort gate)” value was “high polyreactivity”.
On to “QVQLVESGGGLVQAGGSLRLSCAASGYTFVVYAMGWYRPAPGKERELVAAINKSGGSTYYADSVKGRFTISRDNAKNTVYLQMNSLKPEDTAVYYCAAVVWILYSSSRGDYWGQGTQVTVSS”, for which the “polyreactivity (PSR sort gate)” value is “low polyreactivity”.
In the case of “QVQLVESGGGLVQAGGSLRLSCAASGYTFVYNAMGWYRQAPGKEREFVAAITWSGTSTRYADSVKGRFTISRDNAKYTVYLQMKSLKPEDTAVYYCAARRRSAQSGSYNHWGQGTQVTVSS”, the “polyreactivity (PSR sort gate)” value was “high polyreactivity”.
Consider “QVQLVESGGGLVQAGGSLRLSCAASGYTFWYNAMGWYIPAPGKERELVAAIRSSGARTYYADSVKGRFTISRDNAKNTVYLQMNSLKPEDTAVYYCAASLRSGGRSHYYWGQGTQVTVSS”, for which the “polyreactivity (PSR sort gate)” value is “high polyreactivity”.
As for “QVQLVESGGGLVQAGGSLRLSCAASGYTFYANAMGWYRQATGKEREFVASITWSGGSTYYADSVKGRFTISRDNAKNTVYLQMNSLKPEDTAVYYCAAESWFKYDYWGQGTQVTVSS”, the “polyreactivity (PSR sort gate)” value is listed as “low polyreactivity”.
As to “QVQLVESGGGLVQAGGSLRLSCAASGYTFYFYAMGWSRQAPGKERELVAAITGGGTTSYADSVKGRFTISRDNAKNTVYLQMNSLKPEDTAVYYCNVLFADKSDYWGQGSQVTVSS”, the “polyreactivity (PSR sort gate)” value is “low polyreactivity”.
Consider “QVQLVESGGGLVQAGGSLRLSCAASGYTFYGYAMGWYRQAPGKERELVATISTGGTTTYADSVKGRFTISRDNAKNTVYLQMNSLKPEDTAVYYCAADANQVRDVHEFYPYLHDYWGQGTQVTVSS”, for which the “polyreactivity (PSR sort gate)” value is listed as “low polyreactivity”.
With “QVQLVESGGGLVQAGGSLRLSCAASGYTFYPYARGWYRQAPGKGRELVAVITSGDSTYYADSVKGRFTISRDNAKNTVYLQMNSLKPEDSAVYYCNTLGFDYYYYEYDYWVQGTQVTVSS”, the “polyreactivity (PSR sort gate)” value is given as “low polyreactivity”.
Turning to “QVQLVESGGGLVQAGGSLRLSCAASGYTFYVYAMGCYRQAPGKERELVASITSSTSTKYADSVKGRFTISRDNANNTVYLQMNSLKPEDTAVYYCAADSRVPEYRSPKNDYWGQGTQVTVSS”, the “polyreactivity (PSR sort gate)” value is recorded as “low polyreactivity”.
For “QVQLVESGGGLVQAGGSLRLSCAASGYTFYVYTMGWYRPARGKERELVAAISGSGTSTYYADSVKRRFTISRDNAKNTVYLQMNSLKPEDTAVYYCNAQDSLTTVPDPEYDYWGQGTQVTVSS” the value was “low polyreactivity”; for “QVQLVESGGGLVQAGGSLRLSCAASGYTFYVYTMGWYRQAPGKERELVAAISGSGTSTYYADSVKGRFTISRDNAKNTVYLQMNSLKPEDTAVYYCAAEDYSRDVYSYDYWGQGTQVTVSS”, “low polyreactivity”.
